Consider two proteins from PMC12668046, “Single cis‐elements in brassinosteroid‐induced upregulated genes are insufficient to recruit both redox states of the BIL1/BZR1 DNA‐binding domain” (Febs Letters, 2025).

Series [1] deals with the molecule itself. Briefly: SEC; unfused BIL1/BZR1 DBD pretreated with DTT; Superdex 75 10/300 GL Increase; reductant-free buffer 20 mM Tris/HCl pH 8.0, 1 M NaCl, 10% glycerol.
Series [2] deals with the molecule itself. The experiment in a line: crystal structure; mMBP-Ala-BIL1/BZR1 DBD co-crystallised with DNA fragments containing E-box variants (CATATG or CAGCTG); sitting drop, 293 K, 50 mM sodium cacodylate pH 6.5, 0.2 M KCl, 0.01 M MgCl2, 10% PEG 4000.

B1: unfused BIL1/BZR1 DBD (21–104), pretreated with the reductant DTT (domain or fragment, A. thaliana, UniProt Q8S307 21-104, looked up)
chain: ARRKPSWRERENNRRRERRRRAVAAKIYTGLRAQGDYNLPKHCDNNEVLKALCVEAGWVVEEDGTTYRKGCKPLPGEIAGTSSR
notes: also called reduced BIL1/BZR1 DBD; source: expressed and purified as described previously [9, 14, 21]; SEC into reductant-free buffer
For B1, in series [1], the binding result is on record as “binds”.

B2: mutated maltose-binding protein (mMBP)-Ala-BIL1/BZR1 DBD (amino acids 21–104) (domain or fragment, A. thaliana, UniProt Q8S307 21-104, looked up)
chain: B1 chain
notes: protomers 1 and 2 are chains C and D of the deposited entries; Co-crystallised with E-box DNA fragments; also called mMBP-fused BIL1/BZR1 DBD; mMBP-BIL1/BZR1 (21–104); source: expressed and purified as described previously [9, 14, 21]; SEC
Turning to B2, in series [2], the binding result is listed as “binds”.
